Consider one substance from PMC10401628.

The test addresses human α-synuclein E57K mutant (6xHis:α-Syn-E57K) (human) (UniProt P37840).

Chain of bacterial Hsp90 chaperone with C-terminal hexahistidine (Hsp90:6xHis) (P0A6Z3 whole entry): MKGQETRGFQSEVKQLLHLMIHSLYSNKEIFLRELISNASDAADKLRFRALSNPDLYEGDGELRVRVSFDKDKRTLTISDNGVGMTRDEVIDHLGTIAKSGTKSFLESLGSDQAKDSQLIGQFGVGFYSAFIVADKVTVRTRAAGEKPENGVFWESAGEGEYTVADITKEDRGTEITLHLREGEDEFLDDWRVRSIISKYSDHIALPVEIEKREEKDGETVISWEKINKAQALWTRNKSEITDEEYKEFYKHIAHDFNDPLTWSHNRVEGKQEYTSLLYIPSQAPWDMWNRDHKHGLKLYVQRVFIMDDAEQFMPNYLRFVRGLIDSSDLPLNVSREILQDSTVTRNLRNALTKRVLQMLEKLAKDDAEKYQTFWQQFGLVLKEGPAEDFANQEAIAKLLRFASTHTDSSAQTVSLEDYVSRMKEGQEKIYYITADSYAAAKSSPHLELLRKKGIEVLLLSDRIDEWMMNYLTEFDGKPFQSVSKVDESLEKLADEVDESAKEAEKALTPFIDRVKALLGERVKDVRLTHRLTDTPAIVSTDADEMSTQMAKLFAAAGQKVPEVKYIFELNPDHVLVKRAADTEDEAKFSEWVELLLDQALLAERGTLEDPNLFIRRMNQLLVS

Regarding “bacterial Hsp90 chaperone with C-terminal hexahistidine (Hsp90:6xHis) (from UniProt P0A6Z3 1-624) (natural protein)”, the insoluble fraction of α-Syn-E57K after incubation under amyloidogenic conditions with free Hsp90 (18.42% without Hsp90); centrifugation, SDS-PAGE, band quantification was 5.67%.
